Tested on: human blood samples
Experiment: OTEG fibrinolysis measurement (LY15) in human blood samples spiked with tPA
Conditions: human blood spiked with 0.5 μg/ml tPA (14% at 0 μg/ml), three repeated measurements, FIG. 13
Procedure: Dilutional coagulopathy is generated by serially diluting whole blood (30-60%) with phosphate buffer saline (PBS) solution to vary MA (FIGS. 9A, 9B, 9C). Diluted blood is treated with low to high doses of fibrinogen concentrate (80-160 μL) which also varies MA. Undiluted blood is treated with unfractionated heparin to reach a maximum concentration of 1 U/ml to vary PT, R and K times. To induce fibrinolysis, blood is spiked with varying concentrations of tissue plasminogen activator (tPA) to alter % LY (FIGS. 10A, 10B). Thrombocytopenia or low platelet count is achieved by blood centrifugation, and substitution of platelet-rich with platelet-poor plasma at varying doses, followed by subsequent reconstitution. […]
FIGS. 12, 12B, 12C, 12D, and 12E illustrate the effect of tissue plasminogen activator (tPA) on blood coagulation parameters (Clot Reaction Time, Clotting Time, Clot Progression Rate, Clot Stiffness, and Fibrinolysis) measured with OTEG according to an embodiment of the invention and TEG. […]
FIG. 13 illustrates reproducibility in OTEG-based fibrinolysis measurement of the parameter LY15 in human blood samples spiked with 0-0.5 μg/ml of tPA. The concentration of tPA from 0 to 0.5 μg/ml increases the fibrinolysis from 14% to 51%, which can be successfully detected with an embodiment of the invention. […]

B1: tPA: tissue plasminogen activator, spiked into blood to activate fibrinolysis (protein, UniProt P00750 36-562, looked up)
Tissue-type plasminogen …: SYQVICRDEKTQMIYQQHQSWLRPVLRSNRVEYCWCNSGRAQCHSVPVKSCSEPRCFNGGTCQQALYFSDFVCQCPEGFAGKCCEIDTRATCYEDQGISYRGTWSTAESGAECTNWNSSALAQKPYSGRRPDAIRLGLGNHNYCRNPDRDSKPWCYVFKAGKYSSEFCSTPACSEGNSDCYFGNGSAYRGTHSLTESGASCLPWNSMILIGKVYTAQNPSAQALGLGKHNYCRNPDGDAKPWCHVLKNRRLTWEYCDVPSCSTCGLRQYSQPQFRIKGGLFADIASHPWQAAIFAKHRRSPGERFLCGGILISSCWILSAAHCFQERFPPHHLTVILGRTYRVVPGEEEQKFEVEKYIVHKEFDDDTYDNDIALLQLKSDSSRCAQESSVVRTVCLPPADLQLPDWTECELSGYGKHEALSPFYSERLKEAHVRLYPSSRCTSQHLLNRTVTDNMLCAGDTRSGGPQANLHDACQGDSGGPLVCLNDGRMTLVGIISWGLGCGQKDVPGVYTKVTNYLDWIRDNMRP
  fibrinolysis (LY15): 51%
